In the data set the test system is [H][C@@]12COP(=O)(O)O[C@@]1([H])[C@@H](O)[C@H](n1cnc3c(=O)[nH]c(N)nc31)O2. Description: purified protein.
[1] abbreviates: catalytic site (Km, reduced affinity), allosteric cGMP binding unchanged.

As a reminder, the Km is the concentration of substrate that gives half-maximal velocity. For the substance “PDE5 (human PDE5A1, G659A) (Homo sapiens; G659A)”, under setting [1], the Km is on record as 71.2 ± 1.2 µM.
Still for that read-out and setting: under “PDE5 (human PDE5A1, G659P) (Homo sapiens; G659P)” stands 131.5 ± 7.4 µM.
In the case of PDE5 (human PDE5A1, WT) (Homo sapiens), where the note is “catalytic site (Km), also allosteric site”, the Km was determined as 2.91 ± 0.8 µM.

Values taken from PMC2760630.
